Paper PMC7528686 (Molecules and Cells, 2020)

Biological target: the molecule itself
Assay: SEC

B1: CafA (residues 75-287), β-class carbonic anhydrase of Aspergillus fumigatus (enzyme, UniProt A4UTP0 75-287, looked up)
chain: DSLSDKFSAALAKNKEWAAKCSQEHPELLPTLAVGQHPEILWIGCSDSRCPETTILGLLPGDVFTHRNIANVIHPADLSSGAVIEFAVRHLRVKHVVICGHTKCGGVAAALGNKGLGILDPWLIPLRQLREQHLAELQSLSRDEAVVRLAELNVKEGLKALTQKSVVLEAMQERGLQVHGLIYDVGSGFLRQLDAAEPEEALKARLTSFKTDA
stoichiometry N: 4
